Assay results reported in IntAct's records for PubMed 31515488.

B1: PDCD10 and GCKIII kinases-associated protein 1 (Homo sapiens), Q8IY42 (parent)
chain: MGCRCCKIIQSYLFDPVQVPSPGYVNEVNSCKLDEDDTDKLKGKWSSEVLVQKNDPQRQGSKKTESSSRTADPWEPCWPHQGPLPQGDAGGEHHACGVNGIGPAATPQPTGNSSPTQDDRGSWASTANTVPPTQPFLEGGGTRKQDCVLLASEGTQVMRNGDSRAPSEAESFALEVQDHVFQIPAPDYLQHWGPAGDNVDHNEKDCVFKNHTEDESLEGIQPPVGEHGLNTPFSVRRSWDSLNEDVETEVLSICFNEKGPVHAMPVVDSGNRQEDTHGSDGDGDGEIVDEDAAVAEALAALEAATAGEDLDETD
B2: Tuftelin-interacting protein 11 (Homo sapiens), Q9UBB9 (parent)
chain: MSLSHLYRDGEGRIDDDDDERENFEITDWDLQNEFNPNRQRHWQTKEEATYGVWAERDSDDERPSFGGKRARDYSAPVNFISAGLKKGAAEEAELEDSDDEEKPVKQDDFPKDFGPRKLKTGGNFKPSQKGFAGGTKSFMDFGSWERHTKGIGQKLLQKMGYVPGRGLGKNAQGIINPIEAKQRKGKGAVGAYGSERTTQSMQDFPVVDSEEEAEEEFQKELSQWRKDPSGSKKKPKYSYKTVEELKAKGRISKKLTAPQKELSQVKVIDMTGREQKVYYSYSQISHKHNVPDDGLPLQSQQLPQSGKEAKAPGFALPELEHNLQLLIDLTEQEIIQNDRQLQYERDMVVNLFHELEKMTEVLDHEERVISNLSKVLEMVEECERRMQPDCSNPLTLDECARIFETLQDKYYEEYRMSDRVDLAVAIVYPLMKEYFKEWDPLKDCTYGTEIISKWKSLLENDQLLSHGGQDLSADAFHRLIWEVWMPFVRNIVTQWQPRNCDPMVDFLDSWVHIIPVWILDNILDQLIFPKLQKEVENWNPLTDTVPIHSWIHPWLPLMQARLEPLYSPIRSKLSSALQKWHPSDSSAKLILQPWKDVFTPGSWEAFMVKNIVPKLGMCLGELVINPHQQHMDAFYWVIDWEGMISVSSLVGLLEKHFFPKWLQVLCSWLSNSPNYEEITKWYLGWKSMFSDQVLAHPSVKDKFNEALDIMNRAVSSNVGAYMQPGARENIAYLTHTERRKDFQYEAMQERREAENMAQRGIGVAASSVPMNFKDLIETKAEEHNIVFMPVIGKRHEGKQLYTFGRIVIYIDRGVVFVQGEKTWVPTSLQSLIDMAK
partner: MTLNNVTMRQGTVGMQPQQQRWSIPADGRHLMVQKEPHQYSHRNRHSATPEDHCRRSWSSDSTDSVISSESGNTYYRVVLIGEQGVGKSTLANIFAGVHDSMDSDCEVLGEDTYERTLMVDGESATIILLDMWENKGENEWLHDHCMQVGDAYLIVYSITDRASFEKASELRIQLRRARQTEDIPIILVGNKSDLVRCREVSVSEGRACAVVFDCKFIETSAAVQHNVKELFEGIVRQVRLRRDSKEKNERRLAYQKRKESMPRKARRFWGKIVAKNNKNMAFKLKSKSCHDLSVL
B3: Protein LDOC1 (Homo sapiens), O95751 (parent)
chain: MVDELVLLLHALLMRHRALSIENSQLMEQLRLLVCERASLLRQVRPPSCPVPFPETFNGESSRLPEFIVQTASYMLVNENRFCNDAMKVAFLISLLTGEAEEWVVPYIEMDSPILGDYRAFLDEMKQCFGWDDDEDDDDEEEEDDY
partner: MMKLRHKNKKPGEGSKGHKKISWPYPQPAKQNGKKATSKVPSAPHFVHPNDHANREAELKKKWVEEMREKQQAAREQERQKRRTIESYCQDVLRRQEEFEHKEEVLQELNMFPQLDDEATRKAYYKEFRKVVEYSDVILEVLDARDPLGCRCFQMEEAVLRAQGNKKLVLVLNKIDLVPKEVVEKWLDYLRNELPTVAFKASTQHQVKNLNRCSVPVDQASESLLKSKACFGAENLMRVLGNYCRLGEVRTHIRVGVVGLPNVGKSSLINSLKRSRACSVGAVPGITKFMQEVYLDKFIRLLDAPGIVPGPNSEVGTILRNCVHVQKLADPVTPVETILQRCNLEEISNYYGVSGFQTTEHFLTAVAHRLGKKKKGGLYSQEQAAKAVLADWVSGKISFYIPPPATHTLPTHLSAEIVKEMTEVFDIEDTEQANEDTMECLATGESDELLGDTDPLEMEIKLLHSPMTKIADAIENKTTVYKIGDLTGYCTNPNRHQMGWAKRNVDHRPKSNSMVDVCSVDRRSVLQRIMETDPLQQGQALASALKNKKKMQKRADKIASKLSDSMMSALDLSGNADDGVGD
B4: Zinc finger protein Aiolos (Homo sapiens), Q9UKT9 (parent)
chain: MEDIQTNAELKSTQEQSVPAESAAVLNDYSLTKSHEMENVDSGEGPANEDEDIGDDSMKVKDEYSERDENVLKSEPMGNAEEPEIPYSYSREYNEYENIKLERHVVSFDSSRPTSGKMNCDVCGLSCISFNVLMVHKRSHTGERPFQCNQCGASFTQKGNLLRHIKLHTGEKPFKCHLCNYACQRRDALTGHLRTHSVEKPYKCEFCGRSYKQRSSLEEHKERCRTFLQSTDPGDTASAEARHIKAEMGSERALVLDRLASNVAKRKSSMPQKFIGEKRHCFDVNYNSSYMYEKESELIQTRMMDQAINNAISYLGAEALRPLVQTPPAPTSEMVPVISSMYPIALTRAEMSNGAPQELEKKSIHLPEKSVPSERGLSPNNSGHDSTDTDSNHEERQNHIYQQNHMVLSRARNGMPLLKEVPRSYELLKPPPICPRDSVKVINKEGEVMDVYRCDHCRVLFLDYVMFTIHMGCHGFRDPFECNMCGYRSHDRYEFSSHIARGEHRALLK
partner: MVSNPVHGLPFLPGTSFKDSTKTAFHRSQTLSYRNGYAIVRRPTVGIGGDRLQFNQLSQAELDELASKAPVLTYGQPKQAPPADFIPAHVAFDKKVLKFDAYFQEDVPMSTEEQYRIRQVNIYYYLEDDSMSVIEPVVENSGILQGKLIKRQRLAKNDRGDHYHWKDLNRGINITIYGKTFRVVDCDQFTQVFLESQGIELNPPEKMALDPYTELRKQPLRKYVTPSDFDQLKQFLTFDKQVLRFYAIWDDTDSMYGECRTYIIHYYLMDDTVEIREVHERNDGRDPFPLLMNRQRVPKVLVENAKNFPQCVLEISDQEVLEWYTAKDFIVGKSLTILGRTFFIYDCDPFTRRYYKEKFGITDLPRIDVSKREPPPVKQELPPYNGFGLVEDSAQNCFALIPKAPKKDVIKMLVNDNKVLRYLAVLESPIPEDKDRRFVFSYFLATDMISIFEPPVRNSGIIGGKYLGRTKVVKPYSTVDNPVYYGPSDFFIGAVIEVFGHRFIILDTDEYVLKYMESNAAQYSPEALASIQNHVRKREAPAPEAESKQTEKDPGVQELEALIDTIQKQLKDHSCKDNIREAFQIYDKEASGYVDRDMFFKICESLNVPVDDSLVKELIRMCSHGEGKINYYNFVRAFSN
B5: L-fucose dehydrogenase (Homo sapiens), Q9BPX1 (parent)
chain: MATGTRYAGKVVVVTGGGRGIGAGIVRAFVNSGARVVICDKDESGGRALEQELPGAVFILCDVTQEDDVKTLVSETIRRFGRLDCVVNNAGHHPPPQRPEETSAQGFRQLLELNLLGTYTLTKLALPYLRKSQGNVINISSLVGAIGQAQAVPYVATKGAVTAMTKALALDESPYGVRVNCISPGNIWTPLWEELAALMPDPRATIREGMLAQPLGRMGQPAEVGAAAVFLASEANFCTGIELLVTGGAELGYGCKASRSTPVDAPDIPS
partner: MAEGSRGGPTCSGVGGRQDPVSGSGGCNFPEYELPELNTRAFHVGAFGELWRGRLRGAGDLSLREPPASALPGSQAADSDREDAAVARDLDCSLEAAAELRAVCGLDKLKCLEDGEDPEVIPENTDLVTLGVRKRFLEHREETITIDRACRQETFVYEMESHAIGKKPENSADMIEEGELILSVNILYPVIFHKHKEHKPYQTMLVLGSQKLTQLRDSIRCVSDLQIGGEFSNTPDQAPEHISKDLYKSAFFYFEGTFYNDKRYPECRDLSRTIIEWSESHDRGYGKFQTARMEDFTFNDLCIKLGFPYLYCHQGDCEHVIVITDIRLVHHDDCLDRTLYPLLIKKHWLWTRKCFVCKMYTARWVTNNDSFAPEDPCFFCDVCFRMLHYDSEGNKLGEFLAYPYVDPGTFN

Variants of: B1
Settings: with pdc10_human PDCD10, Q9BUL8
Chain of pdc10_human PDCD10, Q9BUL8 (Q9BUL8 whole entry): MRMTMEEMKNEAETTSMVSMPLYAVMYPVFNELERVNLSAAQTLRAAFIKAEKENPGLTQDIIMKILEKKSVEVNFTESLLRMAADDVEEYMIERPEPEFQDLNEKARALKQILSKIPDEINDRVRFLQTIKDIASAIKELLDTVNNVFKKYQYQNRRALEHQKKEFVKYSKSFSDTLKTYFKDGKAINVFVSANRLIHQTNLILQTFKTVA
With A151T the “effect of a mutation on the interaction” value was “with no effect”.

Variants of: B1
Settings: with eif3e_human EIF3E
For A151T, the “effect of a mutation on the interaction” value was “with no effect”.

Variants of: B2
Settings: with gem_human GEM
For R8Q, the “effect of a mutation on the interaction” value was “with no effect”.
For S688L, the “effect of a mutation on the interaction” value was “with no effect”.

Variants of: B3
Settings: with gnl3l_human GNL3L
With L12H the “effect of a mutation on the interaction” value was “disrupting interaction strength”.

Variants of: B4
Settings: with efhc1_human EFHC1, Q5JVL4
For A24V, the “effect of a mutation on the interaction” value was “with no effect”.
N119D was tested, and the “effect of a mutation on the interaction” value was “with no effect”.

Variants of: B5
Settings: with snpc3_human SNAPC3, Q92966
With N31D the “effect of a mutation on the interaction” value was “with no effect”.
In the case of A56T, the “effect of a mutation on the interaction” value is reported as “with no effect”.
With G16W the “effect of a mutation on the interaction” value was “disrupting interaction strength”.
With R130W the “effect of a mutation on the interaction” value was “disrupting interaction strength”.
